Laboratory results from publication PMC2360559, “Repeated cycles of Clostridium-directed enzyme prodrug therapy result in sustained antitumour effects in vivo” (British Journal of Cancer, 2006).

Test system: NC(=O)c1cc(N2CC2)c([N+](=O)[O-])cc1[N+](=O)[O-]
Experiment: purified protein
Format: biochemical, Haemophilus influenzae
Conditions: 100–1000 μM CB 1954, 500 μM NADPH, 37°C, 10 min, product 4HX

NTR-H; Haemophilus influenzae NfnB; YC78_HAEIN; HinNTR (Haemophilus influenzae Rd KW20)
Km: 690 µM
kcat: 56.2 s⁻¹
